Measurements published in patent publication US20090099029A1, “Methods and substrates for conducting assays” (Invitrogen Corporation, priority 2005, published 2009).

B1: SGKL(SGK3) (protein, UniProt Q96BR1 1-496, looked up)
Serine/threonine-protein …: MQRDHTMDYKESCPSVSIPSSDEHREKKKRFTVYKVLVSVGRSEWFVFRRYAEFDKLYNTLKKQFPAMALKIPAKRIFGDNFDPDFIKQRRAGLNEFIQNLVRYPELYNHPDVRAFLQMDSPKHQSDPSEDEDERSSQKLHSTSQNINLGPSGNPHAKPTDFDFLKVIGKGSFGKVLLAKRKLDGKFYAVKVLQKKIVLNRKEQKHIMAERNVLLKNVKHPFLVGLHYSFQTTEKLYFVLDFVNGGELFFHLQRERSFPEHRARFYAAEIASALGYLHSIKIVYRDLKPENILLDSVGHVVLTDFGLCKEGIAISDTTTTFCGTPEYLAPEVIRKQPYDNTVDWWCLGAVLYEMLYGLPPFYCRDVAEMYDNILHKPLSLRPGVSLTAWSILEELLEKDRQNRLGAKEDFLEIQNHPFFESLSWADLVQKKIPPPFNPNVAGPDDIRNFDTAFTEETVPYSVCVSSDYSIVNASVLEADDAFVGFSYAPPSEDLFL
B2: RPS6KB2(p70S6K2) (protein)
chain: MAAVFDLDLETEEGSEGEGEPELSPADACPLAELRAAGLEPVGHYEEVELTETSVNVGPERIGPHCFELLRVLGKGGYGKVFQVRKVQGTNLGKIYAMKVLRKAKIVRNAKDTAHTRAERNILESVKHPFIVELAYAFQTGGKLYLILECLSGGELFTHLEREGIFLEDTACFYLAEITLALGHLHSQGIIYRDLKPENIMLSSQGHIKLTDFGLCKESIHEGAVTHTFCGTIEYMAPEILVRSGHNRAVDWWSLGALMYDMLTGSPPFTAENRKKTMDKIIRGKLALPPYLTPDARDLVKKFLKRNPSQRIGGGPGDAADVQRHPFFRHMNWDDLLAWRVDPPFRPCLQSEEDVSQFDTRFTRQTPVDSPDDTALSESANQAFLGFTYVAPSVLDSIKEGFSFQPKLRSPRRLNSSPRAPVSPLKFSPFEGFRPSPSLPEPTELPLPPLLPPPPPSTTAPLPIRPPSGTKKSKRGRGRPGR
modifications: left off: a dimerising Fc or GST
B3: RPS6KA4(MSK2) (protein)
chain: MGDEDDDESCAVELRITEANLTGHEEKVSVENFELLKVLGTGAYGKVFLVRKAGGHDAGKLYAMKVLRKAALVQRAKTQEHTRTERSVLELVRQAPFLVTLHYAFQTDAKLHLILDYVSGGEMFTHLYQRQYFKEAEVRVYGGEIVLALEHLHKLGIIYRDLKLENVLLDSEGHIVLTDFGLSKEFLTEEKERTFSFCGTIEYMAPEIIRSKTGHGKAVDWWSLGILLFELLTGASPFTLEGERNTQAEVSRRILKCSPPFPPRIGPVAQDLLQRLLCKDPKKRLGAGPQGAQEVRNHPFFQGLDWVALAARKIPAPFRPQIRSELDVGNFAEEFTRLEPVYSPPGSPPPGDPRIFQGYSFVAPSILFDHNNAVMTDGLEAPGAGDRPGRAAVARSAMMQDSPFFQQYELDLREPALGQGSFSVCRRCRQRQSGQEFAVKILSRRLEANTQREVAALRLCQSHPNVVNLHEVHHDQLHTYLVLELLRGGELLEHIRKKRHFSESEASQILRSLVSAVSFMHEEAGVVHRDLKPENILYADDTPGAPVKIIDFGFARLRPQSPGVPMQTPCFTLQYAAPELLAQQGYDESCDLWSLGVILYMMLSGQVPFQGASGQGGQSQAAEIMCKIREGRFSLDGEAWQGVSEEAKELVRGLLTVDPAKRLKLEGLRGSSWLQDGSARSSPPLRTPDVLESSGPAVRSGLNATFMAFNRGKREGFFLKSVENAPLAKRRKQKLRSATASRRGSPAPANPGRAPVASKGAPRRANGPLPPS
modifications: left off: a dimerising Fc or GST
B4: SGK2 (protein)
chain: LPDHCYRMNSSPAGTPSPQPSRANGNINLGPSANPNAQPTDFDFLKVIGKGNYGKVLLAKRKSDGAFYAVKVLQKKSILKKKEQSHIMAERSVLLKNVRHPFLVGLRYSFQTPEKLYFVLDYVNGGELFFHLQRERRFLEPRARFYAAEVASAIGYLHSLNIIYRDLKPENILLDCQGHVVLTDFGLCKEGVEPEDTTSTFCGTPEYLAPEVLRKEPYDRAVDWWCLGAVLYEMLHGLPPFYSQDVSQMYENILHQPLQIPGGRTVAACDLLQSLLHKDQRQRLGSKADFLEIKNHVFFSPINWDDLYHKRLTPPFNPNVTGPADLKHFDPEFTQEAVSKSIGCTPDTVASSSGASSAFLGFDYAPEDDDILDC
modifications: left off: a dimerising Fc or GST
B5: STK22D(TSSK1) (protein)
chain: MDDAAVLKRRGYLLGINLGEGSYAKVKSAYSERLKFNVAIKIIDRKKAPADFLEKFLPREIEILAMLNHCSIIKTYEIFETSHGKVYIVMELAVQGDLLELIKTRGALHEDEARKKFHQLSLAIKYCHDLDVVHRDLKCDNLLLDKDFNIKLSDFSFSKRCLRDDSGRMALSKTFCGSPAYAAPEVLQGIPYQPKVYDIWSLGVILYIMVCGSMPYDDSNIKKMLRIQKEHRVNFPRSKHLTGECKDLIYHMLQPDVNRRLHIDEILSHCWMQPKARGSPSVAINKEGESSRGTEPLWTPEPGSDKKSATKLEPEGEAQPQAQPETKPEGTAMQMSRQSEILGFPSKPSTMETEEGPPQQPPETRAQ
modifications: left off: small tags and cut ends
B6: STK22B(TSSK2) (protein)
chain: MDDATVLRKKGYIVGINLGKGSYAKVKSAYSERLKFNVAVKIIDRKKTPTDFVERFLPREMDILATVNHGSIIKTYEIFETSDGRIYIIMELGVQGDLLEFIKCQGALHEDVARKMFRQLSSAVKYCHDLDIVHRDLKCENLLLDKDFNIKLSDFGFSKRCLRDSNGRIILSKTFCGSAAYAAPEVLQSIPYQPKVYDIWSLGVILYIMVCGSMPYDDSDIRKMLRIQKEHRVDFPRSKNLTCECKDLIYRMLQPDVSQRLHIDEILSHSWLQPPKPKATSSASFKREGEGKYRAECKLDTKTGLRPDHRPDHKLGAKTQHRLLVVPENENRMEDRLAETSRAKDHHISGAEVGKAST
modifications: left off: small tags and cut ends
B7: SGK (protein, UniProt O00141 1-431, looked up)
Serine/threonine-protein …: MTVKTEAAKGTLTYSRMRGMVAILIAFMKQRRMGLNDFIQKIANNSYACKHPEVQSILKISQPQEPELMNANPSPPPSPSQQINLGPSSNPHAKPSDFHFLKVIGKGSFGKVLLARHKAEEVFYAVKVLQKKAILKKKEEKHIMSERNVLLKNVKHPFLVGLHFSFQTADKLYFVLDYINGGELFYHLQRERCFLEPRARFYAAEIASALGYLHSLNIVYRDLKPENILLDSQGHIVLTDFGLCKENIEHNSTTSTFCGTPEYLAPEVLHKQPYDRTVDWWCLGAVLYEMLYGLPPFYSRNTAEMYDNILNKPLQLKPNITNSARHLLEGLLQKDRTKRLGAKDDFMEIKSHVFFSLINWDDLINKKITPPFNPNVSGPNDLRHFDPEFTEEPVPNSIGKSPDSVLVTASVKEAAEAFLGFSYAPPTDSFL
B8: RPS6KB1(p70S6K) (protein)
chain: MRRRRRRDGFYPAPDFRDREAEDMAGVFDIDLDQPEDAGSEDELEEGGQLNESMDHGGVGPYELGMEHCEKFEISETSVNRGPEKIRPECFELLRVLGKGGYGKVFQVRKVTGANTGKIFAMKVLKKAMIVRNAKDTAHTKAERNILEEVKHPFIVDLIYAFQTGGKLYLILEYLSGGELFMQLEREGIFMEDTACFYLAEISMALGHLHQKGIIYRDLKPENIMLNHQGHVKLTDFGLCKESIHDGTVTHTFCGTIEYMAPEILMRSGHNRAVDWWSLGALMYDMLTGAPPFTGENRKKTIDKILKCKLNLPPYLTQEARDLLKKLLKRNAASRLGAGPGDAGEVQAHPFFRHINWEELLARKVEPPFKPLLQSEEDVSQFDSKFTRQTPVDSPDDSTLSESANQVFLGFEYVAPSVLES
modifications: left off: a dimerising Fc or GST
B9: SRPK2 (protein)
chain: MSSRKVLAIQARKRRPKREKHPKKPEPQQKAPLVPPPPPPPPPPPPPLPDPTPPEPEEEILGSDDEEQEDPADYCKGGYHPVKIGDLFNGRYHVIRKLGWGHFSTVWLCWDMQGKRFVAMKVVKSAQHYTETALDEIKLLKCVRESDPSDPNKDMVVQLIDDFKISGMNGIHVCMVFEVLGHHLLKWIIKSNYQGLPVRCVKSIIRQVLQGLDYLHSKCKIIHTDIKPENILMCVDDAYVRRMAAEATEWQKAGAPPPSGSAVSTAPQQKPIGKISKNKKKKLKKKQKRQAELLEKRLQEIEELEREAERKIIEENITSAAPSNDQDGEYCPEVKLKTTGLEEAAEAETAKDNGEAEDQEEKEDAEKENIEKDEDDVDQELANIDPTWIESPKTNGHIENGPFSLEQQLDDEDDDEEDCPNPEEYNLDEPNAESDYTYSSSYEQFNGELPNGRHKIPESQFPEFSTSLFSGSLEPVACGSVLSEGSPLTEQEESSPSHDRSRTVSASSTGDLPKAKTRAADLLVNPLDPRNADKIRVKIADLGNACWVHKHFTEDIQTRQYRSIEVLIGAGYSTPADIWSTACMAFELATGDYLFEPHSGEDYSRDEDHIAHIIELLGSIPRHFALSGKYSREFFNRRGELRHITKLKPWSLFDVLVEKYGWPHEDAAQFTDFLIPMLEMVPEKRASAGECLRHPWLNS
modifications: left off: a dimerising Fc or GST
B10: STK17A(DRAK1) (protein)
chain: MIPLEKPGSGGSSPGATSGSGRAGRGLSGPCRPPPPPQARGLLTEIRAVVRTEPFQDGYSLCPGRELGRGKFAVVRKCIKKDSGKEFAAKFMRKRRKGQDCRMEIIHEIAVLELAQDNPWVINLHEVYETASEMILVLEYAAGGEIFDQCVADREEAFKEKDVQRLMRQILEGVHFLHTRDVVHLDLKPQNILLTSESPLGDIKIVDFGLSRILKNSEELREIMGTPEYVAPEILSYDPISMATDMWSIGVLTYVMLTGISPFLGNDKQETFLNISQMNLSYSEEEFDVLSESAVDFIRTLLVKKPEDRATAEECLKHPWLTQSSIQEPSFRMEKALEEANALQEGHSVPEINSDTDKSETKESIVTEELIVVTSYTLGQCRQSEKEKMEQKAISKRFKFEEPLLQEIPGEFIY
modifications: left off: a dimerising Fc or GST
B11: EPHB4 (protein)
chain: LCLRKQSNGREAEYSDKHGQYLIGHGTKVYIDPFTYEDPNEAVREFAKEIDVSYVKIEEVIGAGEFGEVCRGRLKAPGKKESCVAIKTLKGGYTERQRREFLSEASIMGQFEHPNIIRLEGVVTNSMPVMILTEFMENGALDSFLRLNDGQFTVIQLVGMLRGIASGMRYLAEMSYVHRDLAARNILVNSNLVCKVSDFGLSRFLEENSSDPTYTSSLGGKIPIRWTAPEAIAFRKFTSASDAWSYGIVMWEVMSFGERPYWDMSNQDVINAIEQDYRLPPPPDCPTSLHQLMLDCWQKDRNARPRFPQVVSALDKMIRNPASLKIVARENGGASHPLLDQRQPHYSAFGSVGEWLRAIKMGRYEESFAAAGFGSFELVSQISAEDLLRIGVTLAGHQKKILASVQHMKSQAKPGTPGGTGGPAPQY
modifications: left off: small tags and cut ends

These molecules were tested on kinases of Table 6 on Myelin Basic Protein (MBP) (assay: Kinase assay using MBP substrate, ProQ Diamond stain (Table 6)). Conditions: kinase printed on MBP-coated slide; 20 uM ATP, 30° C.; ProQ Diamond Microarray Stain; graded Strong/Weak/Negative.
Type: biochemical
Method in brief: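 Bovine dephosphorylated MBP coated on aldehyde- or epoxy-glass slides, kinases printed on top; reaction buffer pH 7.5 with 4 mM MgCl2, 20 uM ATP, 5% DMSO, ± inhibitor, at 30° C. Phosphorylation detected by ProQ Diamond stain, 30 min in dark.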

| Molecule | MBP Kinase Activity |
| --- | --- |
| B1 | Weak |
| B2 | Negative |
| B3 | Weak |
| B4 | Weak |
| B5 | Strong |
| B6 | Negative |
| B7 | Strong |
| B8 | Negative |
| B9 | Strong |
| B10 | Negative |
| B11 | Strong |
